Legend:
[1] = biological target: Biotinylated human E-cadherin K14E mutant ectodomains (human); experiment: single-molecule AFM force spectroscopy
[2] = biological target: Biotinylated human E-cadherin ectodomains (EC1-5), wild type (human); experiment: single-molecule AFM force spectroscopy

Biotinylated human E-cadherin K14E mutant ectodomains (domain or fragment)
average unbinding force [1]: 42.8 pN
unbinding force, lower peak (un-strengthened, with 40 nM 66E8 Fab) [1]: 39.4 pN
unbinding force, second peak (strengthened, with 40 nM 66E8 Fab) [1]: 62.3 pN

Biotinylated human E-cadherin ectodomains (EC1-5), wild type (domain or fragment)
peak unbinding force [2]: 48.3 pN
unbinding force, lower peak (un-strengthened, with 40 nM 66E8) [2]: 45.2 pN
unbinding force, second peak (strengthened, with 40 nM 66E8) [2]: 63.3 pN

Reference: publication PMC10872345
